System: TO-3-N3 (biotin conjugate)
Experiment: pull-down binding Z-score (relative to library population); higher = stronger binding
Conditions: RNA library: Library-2
Method in brief: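 To score binding, a beads-only signal was subtracted, barcoded replicate probes were averaged with the highest and lowest dropped, and the value was converted to a Z-score using the library mean and standard deviation. The input was 1 μg of Cy5- or Cy3-end-labelled RNA library, heat-folded in phosphate/NaCl/KCl buffer and mixed for 60 min at 25 °C with streptavidin beads carrying 100 pmol of biotin-conjugated small molecule. Bound RNA was eluted in hot SDS and hybridised to a DNA barcode microarray at 55.5 °C for 20 h.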

| Sequence | pull-down binding Z-score |
| --- | --- |
| GUGGUGAGACACUUGGUGUCCUUGUCCCUCAUGUGGGCGAAAUACCAGUGGCUUACCGC | 0.769 |
| GUGGUUAUACCUACUAAAAAGGCUGGUGGCACUACUGAAAUGCUAGCGAAAGCUUUGAGAAAAGUGCCAACAGACAAUUAUAUAACCAC | -0.608 |
| GUGGUUGACCUACACAGGUGCCAU | -0.678 |
| GUGUAAAAGUGCCUUUUACAU | -0.525 |
| GUGUACCUUCCUUACCCAGAUCCAUCAAGAAUCCUAGGGGCCGGCUGUUUUGUAGAUGAUAUCGUAAAAACAGAUGGUACAC [SHAPE_invivo_SARS-CoV-2_Multi_39_ComplexLevel_1] | 0.725 |
| GUGUAUGCUGCUGACCCUGCUAUGCACGCUGCUUCUGGUAAUCUAUUACUAGAUAAACGCACUACGUGCUUUUCAGUAGCUGCAC | 0.39 |
| GUGUUAUAACAC | -0.176 |
| GUGUUUAUGAUUACUUAGUUUCUACACAGGAGUUUAGAUAUAUGAAUUCACAGGGACUACUCCCACCCAAGAAUAGCAUAGAUGC | -0.215 |
| GUUAAAAAUCUGAAUUCUUCUAGAGUUCCUGAUCUUCUGGUCUAAAC | -0.557 |
| GUUAAAAUAUGAC [SHAPE_invivo_SARS-CoV-2_Motif_271] | -0.672 |
| GUUAAAAUGUUUGAUGCUUACGUUAAUACGUUUUCAUCAACUUUUAAC | -1.02 |
| GUUAACUGGUUAUAAGAAACCUGCUUCAAGAGAGCUUAAAGUUAC | 0.0276 |
| GUUAAUGCCUAUAUUAACCUUGACCAGGGCUUUAAC | 0.238 |
| GUUACGACUAUUGUAUACCUUACAAUAGUGUAAC | 0.593 |
| GUUAGUACAACUACUAAC [SHAPE_invivo_SARS-CoV-2_Motif_138] | -0.759 |
| GUUAUAAAUGGAGACAGGUGGUUUCUCAAUCGAUUUACCACAACUCUUAAUGAC | -0.728 |
| GUUAUGUUGAUACACCUAAU [DMSMaPseq_invitro_SARS-CoV-2_Motif_328] | -0.598 |
| GUUCAGAGUUUAUUCUAGUGCGAAUAAUUGCACUUUUGAAUAUGUCUCUCAGC | -0.177 |
| GUUCGGAUGCUCGAACUGCACCUCAUGGUCAUGUUAUGGUUGAGCUGGUAGCAGAACUCGAAGGCAUUCAGUAC [DMSMaPseq_invitro_SARS-CoV-2_Motif_11] | -0.665 |
| GUUCGUGUUGUUUUAGAUUUCAUCUAAACGAAC | -0.845 |
| GUUCUAAGUAUUGCUCCAAUAAUGUUCUCAAACAAAAUGGCGAGACUGGGAAAAGGGUAUAUGUUUGAGAGCAAGAGUAUGAAACUUAGAAC [IAV_invivo_PB1_2_Motif_18+IAV_invivo_PB1_2_Motif_18] | 0.629 |
| GUUCUCAGUACAGAGAAAUCUCCCUUUUGACAGAACAACCAUUAUGGCAGCAUUCAAUGGGAAUACAGAGGGGAGAACAUCUGACAUGAGGAC [IAV_invivo_NP_5_Motif_22+IAV_invivo_NP_5_Motif_22] | 0.104 |

| Sequence | pull-down binding Z-score |
| --- | --- |
| GUUCUCUAAACGAAC | -0.273 |
| GUUCUCUAUGAGAAC | 0.38 |
| GUUCUUCUUCGUAAGAAC | -0.358 |
| GUUCUUGAGUGUAAUGUGAAAACUACCGAAGUUGUAGGAGACAUUAUACUUAAACCAGC | -0.133 |
| GUUCUUGUAUGUGAGAAC [IAV_invivo_PA_3_Motif_23+IAV_invivo_PA_3_Motif_23] | -0.598 |
| GUUCUUUGAGAAC [IAV_invivo_PA_3_Motif_25+IAV_invivo_PA_3_Motif_25] | 0.296 |
| GUUGAAGAAGUUACAAC | 0.355 |
| GUUGAAGUUGUUGAUAAGUACUUUGAUUGUUACGAUGGUGGCUGUAUUAAUGCUAACCAAGUCAUCGUCAACAACCUAGACAAAUCAGCUGGUUUUCCAUUUAAU | -0.27 |
| GUUGACAGGACACGAGUAACUCGUCUAUCUUCUGCAGGCUGCUUACGGUUUCGUCCGUGUUGCAGCCGAUCAUCAGC | -0.282 |
| GUUGAUGAGCCUGAAGAACAUGUCCAAAUUCACACAAUCGACGGUUCAUCCGGAGUUGUUAAUCCAGUAAUGGAACCAAUUUAUGAUGAACCGACGACGAC | 0.104 |
| GUUGAUUUUUGUGGAAAGGGCUAUCAUCUUAUGUCCUUCCCUCAGUCAGC [SHAPE_invitro_SARS-CoV-2_Motif_447] | -1.02 |
| GUUGCGUCACCAAAUGAAUGCAAC | -0.989 |
| GUUGCUGUACCUACAGGUUAUGUUGAUACACCUAAUAAUACAGAUUUUUCCAGAGUUAGUGCUAAACCACCGCCUGGAGAUCAAU [SHAPE_invitro_SARS-CoV-2_Multi_51_ComplexLevel_1] | 0.475 |
| GUUGGAUAAUGAUGCACUCAACAACAUUAUCAAC | -0.974 |
| GUUGUAGACGGUUGUAAUUCAUCAACUUGUAUGAUGUGUUACAAACGUAAUAGAGC [SHAPE_invivo_SARS-CoV-2_Motif_153] | -0.547 |
| GUUGUAGACGGUUGUAAUUCAUCAACUUGUAUGAUGUGUUACAAACGUAAUAGAGCAAC | -0.88 |
| GUUGUCGCUUCCAAGAAAAGGACGAAGAUGACAAU [SHAPE_invitro_SARS-CoV-2_Motif_248] | 0.276 |
| GUUGUCUUGAAAACUGGUGAUUUACAACCAUUAGAACAACCUACUAGUGAAGCUGUUGAAGCUCCAUUGGUUGGUACACCAGUUUGUAUUAAC | -0.52 |
| GUUGUCUUUGAUGAAAUUUCAAUGGCCAC [DMSMaPseq_invitro_SARS-CoV-2_Motif_310] | -0.693 |
| GUUGUUACUCACAAUUUUGACUUCACUUUUAGUUUUAGUCCAGAGUACUCAAU | -0.826 |
| GUUUAAGGAAGGUGUAGAGUUUCUUAGAGAC | -0.375 |
| GUUUACAACAGUAGAC | 0.0879 |

| Sequence | pull-down binding Z-score |
| --- | --- |
| GUUUAUGAAAAACUCAAACCCGUCCUUGAUUGGCUUGAAGAGAAGUUUAAGGAAGGUGUAGAGUUUCUUAGAGAC | 0.121 |
| GUUUCGGAAGAGAC | -0.255 |
| GUUUCUGCCUUUCCAACAAUUUGGCAGAGAC | -0.615 |
| GUUUGUCUUAGUGGUUUAGAUUCUUUAGACACCUAUCCUUCUUUAGAAACUAUACAAAU | -0.000875 |
| GUUUGUGUAUCUACUAGUGGUAGAUGGGUACUUAAC | -0.677 |
| GUUUUAAUUAUGCUUAUUAUCUUUUGGUUCUCACUUGAACUGCAAGAUCAUAAUGAAAC | -0.212 |
| GUUUUCUACAAAGAAAAC | -0.676 |
| GUUUUUCUGUUUGGAACUUUAAUUUUAGCCAUGGCAGAUUCCAACGGUACUAUUACCGUUGAAGAGCUUAAAAAGCUCCUUGAAC | -0.86 |
| GUUUUUGUACACAAUUAAACCGUGCUUUAACUGGAAUAGCUGUUGAACAAGACAAAAAC [DMSMaPseq_invitro_SARS-CoV-2_Motif_424] | 0.247 |
| UAAAAUGAAUUAUCAAGUUA [DMSMaPseq_invitro_SARS-CoV-2_Motif_325] | -0.703 |
| UAAACACGCUUGUUAAACAACUUAGCUCCAAUUUUGGUGCAAUUUCAAGUGUUUUA [SHAPE_invitro_SARS-CoV-2_Motif_443] | -0.82 |
| UAAACCACCCAUUAGUUUUCCAUUGUGUGCUAAUGGACAAGUUUUUGGUUUA [SHAPE_invivo_SARS-CoV-2_Motif_310] | -0.757 |
| UAAAGAACUUUAAGUCAGUUCUUUA | -0.827 |
| UAAAGCCACGUAUAAACCAAAUACCUGGUGUAUACGUUGUCUUUG | -0.523 |
| UAAAGUACUUAAUGAGAAGUGCUCUGCCUAUACAGUUGAACUCGGUACAGAAGUAAAUGAGUUCGCCUGUGUUGUGGCAGAUGCUGUCAUAAAAACUUUG [DMSMaPseq_invitro_SARS-CoV-2_Motif_52] | -0.419 |
| UAAAUAAGGGACACUUUGAUGGACAACAGGGUGAAGUACCAGUUUCUAUCAUUAAUAACACUGUUUACACAAAAGUUGAUGGUGUUGAUGUAGAAUUGUUUG | -0.266 |
| UAAAUUUUUGGCUUUGUGUGCUGACUCUAUCAUUAUUGGUGGAGCUAAACUUAAAGCCUUGAAUUUA | -0.848 |
| UAACACCAGGAACAAAUACUUCUAACCAGGUUGCUGUUCUUUAUCAGGGUGUUA [SHAPE_invivo_SARS-CoV-2_Motif_440] | -0.383 |
| UAACAGUUACACCGGAAGCCAAUAUGGAUCAAGAAUCCUUUGGUGGUGCAUCGUGUUG | -0.833 |
| UAAGGAAGGAAGUUCUGUUGAAUUAAAACACUUCUUCUUUG [SHAPE_invitro_SARS-CoV-2_Motif_269] | -0.963 |
| UAAGGAGAGUGUUCAGACAUUCUUUAAGCUUG [DMSMaPseq_invitro_SARS-CoV-2_Motif_43] | -0.408 |
| UAAUAACGCUACUAAUGUUGUUAUUA | -0.595 |

Reference: the supplement of paper PMC11865577
